Experimental data: patent publication US20090068174A1, “THERAPEUTIC ALKALINE PROTEASE COMPOSITIONS AND USE IN FACILITATING THE TRANSPORT OF AGENTS ACROSS THE GASTROINTESTINAL MUCOSAL LINING” (Kansas University Medical Center Research Institute, Inc., priority 2007, published 2009)
Like-named read-outs stand apart in the source and are kept apart here.

Columns and labels:
mouse recombinant IFN-γ = target: T1, mouse recombinant IFN-γ (Mus musculus, UniProt P01580); assay: Bioactivity of protease-treated mouse IFN-γ (NO production by C2C12 cells); type: cell-based
T1 sequence (P01580 23-155): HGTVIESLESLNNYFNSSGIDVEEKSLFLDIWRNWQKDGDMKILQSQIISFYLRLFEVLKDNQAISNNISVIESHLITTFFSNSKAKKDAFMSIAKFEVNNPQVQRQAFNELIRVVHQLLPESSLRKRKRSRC
Method: Effects of three purified A. oryzae proteases on the bioactivity of mouse IFN-γ: (A) protease powder prepared according to Example 1 (preparation); (B) alkaline protease; (C) 26 kDa protease; and (D) deuterolysin. 50 ng quantities of mouse recombinant IFN-γ were incubated for 24 hours at 37° C. with either buffer or 2.5-10 ng of the indicated protease: (∘) Buffer; (▴) 2.5 ng; ([…]) 5 ng; (▪) 10 ng. IFN-γ bioactivity was determined as conduction of NO production by C2C12 cells.
To evaluate the specificity of this effect, the three Aspergillus oryzae proteases were tested for their ability to inactivate mouse IFN-γ, and a different pattern was seen. […] This was an unexpected finding given the ability of alkaline protease to cause partial proteolysis of IFN-γ.

[1] = Table 4, cited from earlier work
human TNF-α = human TNF-α (Homo sapiens, UniProt P01375); assay: Human TNF-α hydrolysis (Western blotting); type: biochemical; details: 50 ng cytokine with 2.5, 5, 10 ng protease, overnight at 37° C., Western blot
Method: Effects of the purified A. oryzae proteases on human recombinant TNF-α: (A) protease powder prepared according to Example 1 (preparation); (B) alkaline protease; (C) 26 kDa protease; and (D) deuterolysin. 50 ng quantities of TNF-α were incubated at 37° C. for 18 hours with the indicated quantities of protease powder prepared according to Example 1, alkaline protease, 26 kDa protease or deuterolysin. Western blotting was then used to determine substrate specificity. C=control, buffer-treated TNF-α.
Human TNF-α is cleaved and inactivated by Aspergillus oryzae alkaline protease. Purified cytokine (50 ng) was first combined with the following amounts [2.5, 5, and 10 ng] of protease powder prepared according to Example 1 (preparation), as well as alkaline protease, 26 kDa protease, and deuterolysin prepared according to Example 2. Each mixture was incubated overnight at 37° C. and examined by Western blotting for evidence of proteolysis. […] Because the antibody used in this Western blot was specific for the carboxyl terminus of human TNF-α, these enzymes cleaved the cytokine at the amino terminus yielding a smaller peptide that retained the C-terminal epitope.

mouse recombinant TNF-α = target: T2, mouse recombinant TNF-α (Mus musculus, UniProt P06804); assay: Bioactivity of protease-treated mouse TNF-α in the C2C12 cell bioassay (nitrite); type: cell-based; set-up: key to Inactivation of Mouse TNF-α: +: Indicates that the protease inactivated the cytokine; ^a: Cleavage of the cytokine occurred without inactivation; details: for Effect on bioactivity of mouse TNF-α: C2C12 cells, NO (nitrite) production
T2 sequence (P06804 80-235 limits assumed): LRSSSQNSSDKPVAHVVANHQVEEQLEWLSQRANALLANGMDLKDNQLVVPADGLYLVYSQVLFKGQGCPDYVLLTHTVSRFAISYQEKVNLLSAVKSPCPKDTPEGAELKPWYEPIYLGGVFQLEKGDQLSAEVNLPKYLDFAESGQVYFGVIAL
Method: Effects of three purified A. oryzae proteases on the bioactivity of mouse TNF-α (A) protease powder prepared according to Example 1 (preparation); (B) alkaline protease; (C) 26 kDa protease; and (D) deuterolysin. 50 ng quantities of TNF-α were incubated at 37° C. for 24 hours with the indicated quantities of the protease powder prepared according to Example 1 or one of the three purified proteases. The reactions were then stopped by addition of FBS and samples were added to C2C12 cells that had been costimulated with mouse IFN-γ. Twenty-four hours later, nitrite was measured in culture fluids.
The protease powder prepared according to Example 1 inactivates mouse recombinant TNF-α. 50 ng of the cytokine was treated for 24 hours with either 0 (□); 5 (∘); or 10 ng ([…]) of either Pseudomonas elastase (A) or protease powder prepared according to Example 1 (B). Then the residual bioactivity of the cytokine was measured by its ability to co-activate mouse C2C12 myoblast cells in the presence of excess IFN-γ for the production of NO (nitrite).
The protease powder prepared according to Example 1 inactivates mouse recombinant TNF-α by limited proteolysis. (FIG. 16 A-B) This property was established by measuring the loss of activity of TNF-α in a bioassay in which the cytokine was used to coactivate mouse myoblast C2C12 cells for the production of NO by transcriptional activation of the inducible NO synthase (iNOS) gene. The assay can be used to measure either TNF-α or IFN-γ activity by adding test samples containing one of the cytokines to cells stimulated with an excess of the other cytokine. Nitrite is a stable endproduct of NO produced by the cells. […] (FIG. 16A-B).
The three purified proteases were then compared for their ability to inactivate mouse TNF-α using the C2C12 cell bioassay.

spontaneous colitis = assay: Spontaneous colitis in C3H/HeJBir mice; type: in vivo, mouse; details: weeks 6-10 of life
Text: This particular mouse strain develops a transmural Th1-, cytokine-dependent colitis similar to CD that begins at 3-6 wk of life and gradually wanes until it resolves at 3 months of age. T cells and Th1 cytokines (IL-112, IFN-γ and TNF-α) mediate the disease which is maintained by an ongoing reaction to microbial flora antigens.
C3H/HeJBir mice can be obtained at 5-6 wk of age from Jackson Labs. Mice can be divided into three groups, for example: Group 1 should receive no further treatment and may simply be monitored for clinical signs, including daily measurements of body weight and endpoint pathology. Group 2 should be administered alkaline protease in their drinking water at a dose of 10-25 mg/kg/week for one week. Group 3 should be administered alkaline protease in their drinking water (dose determined above) for two weeks. After 1 week (Group 2 and half of Group 1) or 2 weeks (Group 3 and half of Group 1), animals can be sacrificed and body weight changes and histopathological scores of inflammation and tissue damage (leukocyte infiltration, ulceration, abscesses and fibrosis), activated caspase-3 expression and TNF-α expression can be measured by methods known in the art.

[2] = Table 1; cited from earlier work

Sequence of human TNF-α (P01375 77-233 limits assumed): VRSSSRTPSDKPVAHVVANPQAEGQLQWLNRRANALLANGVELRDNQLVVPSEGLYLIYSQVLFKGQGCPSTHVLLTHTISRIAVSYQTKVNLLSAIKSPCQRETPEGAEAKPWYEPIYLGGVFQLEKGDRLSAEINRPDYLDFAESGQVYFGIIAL

B1: 26 kDa Protease: A. oryzae protease cloned recently by Novozyme, labeled the 26 kDa protease, SEQ ID NO: 3 (protein, listed as Aspergillus oryzae)
chain: HASADAWASSKAISSTSSPSSFKMRFISVSSLLLALAPALNAVPVEVAGSAQGLDVTLSQVGNTRIKAWKNTGSEDVTFVHLNFFKDAAPVQKVSLFRNATEVQFQGIKQRLITEGLSDDALTTLAPGATIEDEFDIASTSDLSEGGTITINSNGLVPITTDNKVTGYIPFTSNELSIDVDAAEAASVTQAVKILERRTKVTSCSGSRLSALQTALRNTVSLARAAATAAQSGSSSRFQEYFKTTSSSTRSTVAARLNAVANEAASTSSGSTTYYCSDVYGYCSSNVLAYTLPSYNIIANCDLYYSYLPALTSTCHAQDQATTTLHEFTHAPGVYSPGTDDLGYGYSAATALSASQALLNADTYALFANAVNLNC
Effect on bioactivity of mouse IFN-γ (mouse recombinant IFN-γ): primarily associated with the 26 kDa protease | pI [1]: 6.72 | Cleavage of human TNF-α (human TNF-α): to a lesser extent | Effect on bioactivity of mouse TNF-α (mouse recombinant TNF-α): devoid of such activity

B2: Alkaline Protease: Aspergillus oryzae alkaline protease (oryzin), SEQ ID NO: 2, purified from the protease powder of Example 1 (protein, listed as Aspergillus oryzae)
chain: MQSIKRTLLLLGAILPAVLGAPVQETRRAAEKLPGKYIVTFKPGIDEAKIQEHTTWATNIHQRSLERRGATGGDLPVGIERNYKINKFAAYAGSFDDATIEEIRKNEDVAYVEEDQIYYLDGLTTQKSAPWGLGSISHKGQQSTDYIYDTSAGEGTYAYVVDSGVNVDHEEFEGRASKAYNAAGGQHVDSIGHGTHVSGTIAGKTYGIAKKASILSVKVFQGESSSTSVILDGFNWAANDIVSKKRTSKAAINMSLGGGYSKAFNDAVENAFEQGVLSVVAAGNENSDAGQTSPASAPDAITVAAIQKSNNRASFSNFGKVVDVFAPGQDILSAWIGSSSATNTISGTSMATPHIVGLSLYLAALENLDGPAAVTKRIKELATKDWKDVKGSPNLLAYNGNA
Effect on bioactivity of mouse IFN-γ (mouse recombinant IFN-γ): did not significantly affect the activity of mouse IFN-γ | pI [1]: 6.53 | Heat stability ([1]; deuterolysin for 10 min, alkaline protease for 3 h): Stable at 37 °C | Weight loss and pathological lesions (spontaneous colitis): can correct the weight loss and the pathological lesions | Heat stability (stable at) [2]: 37 °C for 3 h | pI [2]: 6.53 | Cleavage of human TNF-α (human TNF-α): produced a similar pattern of cleavage | Effect on bioactivity of mouse TNF-α (mouse recombinant TNF-α): dose-dependent inactivation of mouse TNF-α | Inactivation of Mouse TNF-α (mouse recombinant TNF-α; Table 7 summary): +
